Reference: patent US20150072933A1, “NOVEL SEQUENCES FOR THE CONTROL OF REPRODUCTION IN FISH” (Yissum Research Development Company of the Hebrew …, priority 2011, published 2015)
*1 amine or outer side, *2 acyl side, *3 side chain or, on linkers, in order; H or OH if unused. Where no end group is shown, it is not given here. [ ]: non-standard residue; d: D form. Suc = O=C(CCC(=O)[*:2])[*:1]; NMeV = CN[C@H](C(=O)O)C(C)C

T1: human NK3R (human NKB receptor) (human, UniProt P29371 1-465)
T1 sequence (looked up): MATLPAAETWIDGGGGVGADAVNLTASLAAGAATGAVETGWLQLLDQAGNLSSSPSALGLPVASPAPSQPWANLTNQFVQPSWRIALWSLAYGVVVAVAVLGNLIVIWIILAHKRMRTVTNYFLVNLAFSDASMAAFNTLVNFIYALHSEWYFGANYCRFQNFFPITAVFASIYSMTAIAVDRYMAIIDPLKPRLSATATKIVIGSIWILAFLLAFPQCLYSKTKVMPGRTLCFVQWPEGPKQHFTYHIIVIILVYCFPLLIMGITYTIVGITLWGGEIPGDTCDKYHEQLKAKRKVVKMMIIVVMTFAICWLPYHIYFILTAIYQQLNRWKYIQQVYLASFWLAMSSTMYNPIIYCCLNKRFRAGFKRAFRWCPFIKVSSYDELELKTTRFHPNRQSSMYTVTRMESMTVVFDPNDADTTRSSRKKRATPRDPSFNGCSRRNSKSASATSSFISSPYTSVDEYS

T2: zebrafish Tac3ra (tac3 receptor a, NKB receptor) (zebrafish)
T2 chain: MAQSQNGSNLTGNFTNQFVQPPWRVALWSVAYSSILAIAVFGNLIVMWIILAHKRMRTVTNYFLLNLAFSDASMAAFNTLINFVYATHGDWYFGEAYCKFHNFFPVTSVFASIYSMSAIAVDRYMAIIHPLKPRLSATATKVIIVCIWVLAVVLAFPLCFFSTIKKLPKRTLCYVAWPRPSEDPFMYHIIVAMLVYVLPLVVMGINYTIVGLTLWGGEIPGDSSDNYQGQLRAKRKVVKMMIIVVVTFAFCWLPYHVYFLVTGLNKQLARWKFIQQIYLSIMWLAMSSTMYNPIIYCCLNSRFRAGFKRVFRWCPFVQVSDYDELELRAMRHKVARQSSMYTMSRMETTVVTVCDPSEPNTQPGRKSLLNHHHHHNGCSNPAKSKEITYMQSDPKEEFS

T3: zebrafish Tac3rb (tac3 receptor b, NKB receptor) (zebrafish)
T3 chain: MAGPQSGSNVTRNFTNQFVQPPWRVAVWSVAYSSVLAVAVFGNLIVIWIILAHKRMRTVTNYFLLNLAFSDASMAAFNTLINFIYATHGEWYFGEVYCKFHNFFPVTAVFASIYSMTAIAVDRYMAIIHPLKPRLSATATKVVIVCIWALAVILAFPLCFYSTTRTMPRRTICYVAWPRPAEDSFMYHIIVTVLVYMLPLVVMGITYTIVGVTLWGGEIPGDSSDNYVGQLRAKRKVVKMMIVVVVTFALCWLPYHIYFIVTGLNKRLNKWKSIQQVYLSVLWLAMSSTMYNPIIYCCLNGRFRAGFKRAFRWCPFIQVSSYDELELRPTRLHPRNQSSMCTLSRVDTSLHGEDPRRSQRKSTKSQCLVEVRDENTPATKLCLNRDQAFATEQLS


Legend:
zfTac3rb [1] = test: Receptor transactivation assay, CRE-Luc reporter (PKA activation), COS-7 cells expressing zfTac3rb; type: cell-based, zebrafish; conditions: mean ± SEM
Protocol: (§1) In order to study the signaling pathways of the novel zebrafish NKBs, the entire coding regions of zftac3ra (denoted by SEQ ID NO:6) or zftac3rb (denoted by SEQ ID NO:7), or the cDNA clone for human NK3R (obtained from the Missouri S&T cDNA Resource Center, were inserted into pcDNA3.1 (Invitrogen). The luciferase assay was conducted according to Biran et al., 2008 [4] COS-7 cells were grown in DMEM supplemented with 10% FBS, 1% glutamine, 100 U/ml penicillin, and […] streptomycin (Biological Industries) under 5% CO2 until confluent. Cotransfection of either pc-zftac3ra, pc-zftac3rb or pc-Htac3r (at 3 μg/plate), a reporter plasmid (at 2 μg/plate), and pCMV-β-galactosidase (at 1 μg/plate) was carried out with FuGENE 6.0 reagent (Roche). The cells were serum starved for 36 h, stimulated with vehicle or various concentrations of either human (Sigma) or zebrafish NKBs for 6 h, and then harvested and analyzed. Lysates prepared from the harvested cells were assayed for both luciferase activity and β-galactosidase activity, which was used as an internal standard to normalize the luciferase activity directed by the test plasmid. Transfection experiments were performed in triplicate with three independently isolated sets. Protein structure prediction of zebrafish NKBa, NKBb or NKF were performed on I-Tasser servers.
(§2) The response, binding selectivity and signal transduction pathways of the novel tachykinin receptors to their agonists were evaluated by functional expression analysis, using COS-7 cells.
(§3) The NKB analogues (i.e. the NKBa-analog, NKBb-analog and NKF-analog, as denoted by SEQ ID NO. 44-46) were first analyzed in comparison to their native forms in a transactivation assay, using reporter genes for specific signal transduction pathways. To validate the specificity of the serum-responsive element (SRE)-Luc and cAMP-responsive element (CRE)-Luc reporter systems, specific activators for PLC/PKC and AC/PKA signaling pathways were used in control experiments.
(§4) Thus, the ability of the three novel piscine peptides (namely, NKBa, NKBb and NKF, denoted by SEQ ID NO.40, 41 and 42), as well as the ability of the three analogous agonistic peptides, namely, NKBa-analog, NKBb-analog and NKF-analog, to differentially activate the different tac3 receptors, using SRE as a reporter gene that follows PKC activation and CRE as a reporter gene for the PKA pathway, was tested. Human NK3R (human NKB receptor) and human NKB served as controls.

zfTac3ra [2] = test: Receptor transactivation assay, SRE-Luc reporter (PKC activation), COS-7 cells expressing zfTac3ra; type: cell-based, zebrafish; conditions: mean ± SEM
Protocol: as §1, §2, §3, §4

zfTac3ra [3] = test: Receptor transactivation assay, CRE-Luc reporter (PKA activation), COS-7 cells expressing zfTac3ra; type: cell-based, zebrafish; conditions: mean ± SEM
Protocol: as §1, §2, §3, §4

zfTac3rb [4] = test: Receptor transactivation assay, SRE-Luc reporter (PKC activation), COS-7 cells expressing zfTac3rb; type: cell-based, zebrafish; conditions: mean ± SEM
Protocol: as §1, §2, §3, §4

[5] = target: T1, human NK3R (human NKB receptor); test: cell-based or functional assay
[6] = target: T2, zebrafish Tac3ra (tac3 receptor a, NKB …); test: cell-based or functional assay
[7] = target: T3, zebrafish Tac3rb (tac3 receptor b, NKB …); test: cell-based or functional assay
[8] = target: T1, human NK3R (human NKB receptor); test: cell-based or functional assay; remark: listed apart in the source
[9] = target: T2, zebrafish Tac3ra (tac3 receptor a, NKB …); test: cell-based or functional assay
[10] = target: T3, zebrafish Tac3rb (tac3 receptor b, NKB …); test: cell-based or functional assay
[11] = target: T1, human NK3R (human NKB receptor); test: cell-based or functional assay; remark: listed apart in the source
[12] = target: T2, zebrafish Tac3ra (tac3 receptor a, NKB …); test: cell-based or functional assay
[13] = target: T3, zebrafish Tac3rb (tac3 receptor b, NKB …); test: cell-based or functional assay

Molecule | EC50 (zfTac3rb [1]; Table 5, COS-7 cells, CRE-Luc follows PKA activation, read-out: EC50 CRE-Luc zfTac3rb) | EC50 (zfTac3rb [1]; Table 6 (native peptides and analogues), PKA activation, read-out: EC50 using CRE-Luc, zfTac3rb) | EC50 (zfTac3ra [2]; Table 5, COS-7 cells, SRE-Luc follows PKC activation, read-out: EC50 SRE-Luc zfTac3ra) | EC50 (zfTac3ra [2]; Table 7 (native peptides and analogues), PKC activation, read-out: EC50 using SRE, zfTac3ra) | EC50 (zfTac3ra [3]; Table 5, COS-7 cells, CRE-Luc follows PKA activation, read-out: EC50 CRE-Luc zfTac3ra) | EC50 (zfTac3ra [3]; Table 6 (native peptides and analogues), PKA activation, read-out: EC50 using CRE-Luc, zfTac3ra) | EC50 (zfTac3rb [4]; Table 5, COS-7 cells, SRE-Luc follows PKC activation, read-out: EC50 SRE-Luc zfTac3rb) | EC50 (zfTac3rb [4]; Table 7 (native peptides and analogues), PKC activation, read-out: EC50 using SRE, zfTac3rb) | EC50, CRE-Luc to follow PKA activation, transfected COS-7 cells [5] | EC50, CRE-Luc to follow PKA activation, transfected COS-7 cells [6] | EC50, CRE-Luc to follow PKA activation, transfected COS-7 cells [7] | EC50, SRE reporter gene that follows PKC activation, transfected COS-7 cells [8] | EC50, SRE reporter gene that follows PKC activation, transfected COS-7 cells [9] | EC50, SRE reporter gene that follows PKC activation, transfected COS-7 cells [10] | EC50, CRE-Luc reporter (PKA activation), transfected COS-7 cells [11] | EC50, SRE-Luc reporter (PKC activation), transfected COS-7 cells [11] | EC50, CRE-Luc reporter (PKA activation), transfected COS-7 cells [12] | EC50, SRE-Luc reporter (PKC activation), transfected COS-7 cells [12] | EC50, CRE-Luc reporter (PKA activation), transfected COS-7 cells [13] | EC50, SRE-Luc reporter (PKC activation), transfected COS-7 cells [13]
CSCC[C@H](NC(=O)[C@H](CC(C)C)NC(=O)CNC(=O)[C@@H](NC(=O)[C@H](Cc1ccccc1)NC(=O)[C@H](Cc1ccccc1)NC(=O)[C@H](CC(=O)O)NC(=O)[C@H](Cc1c[nH]cn1)NC(=O)[C@H](CCSC)NC(=O)[C@@H](N)CC(=O)O)C(C)C)C(N)=O [huNKB, reference compound] | 8.12 ± 1.56 nM | 8.12 ± 1.56 nM | 2.2 ± 1.49 nM | 2.2 ± 1.49 nM | 12.9 ± 13.3 nM | 12.9 ± 13.3 nM | 0.82 ± 0.16 nM | 0.82 ± 0.16 nM |  |  |  |  |  |  |  |  |  |  |  | 
STGINREAHLPFRPNMNDIFVGLL-NH2 [Zebrafish Tac3b peptide, neurokinin Bb (STGINREAHLPFRPNMNDIFVGLL-NH2)] |  |  |  |  |  |  |  |  | 336 nM | 99.6 nM | 191 nM | 204 nM | 6.06 nM | 15.3 nM | 605 nM | 204 nM | 237 nM | 8.96 nM | 519 nM | 33.8 nM

The remaining lines, values ahead:

EC50 (zfTac3rb [1]; Table 5, COS-7 cells, CRE-Luc follows PKA activation, read-out: EC50 CRE-Luc zfTac3rb) | EC50 (zfTac3rb [1]; Table 6 (native peptides and analogues), PKA activation, read-out: EC50 using CRE-Luc, zfTac3rb) | EC50 (zfTac3ra [2]; Table 5, COS-7 cells, SRE-Luc follows PKC activation, read-out: EC50 SRE-Luc zfTac3ra) | EC50 (zfTac3ra [2]; Table 7 (native peptides and analogues), PKC activation, read-out: EC50 using SRE, zfTac3ra) | EC50 (zfTac3ra [3]; Table 5, COS-7 cells, CRE-Luc follows PKA activation, read-out: EC50 CRE-Luc zfTac3ra) | EC50 (zfTac3ra [3]; Table 6 (native peptides and analogues), PKA activation, read-out: EC50 using CRE-Luc, zfTac3ra) | EC50 (zfTac3rb [4]; Table 5, COS-7 cells, SRE-Luc follows PKC activation, read-out: EC50 SRE-Luc zfTac3rb) | EC50 (zfTac3rb [4]; Table 7 (native peptides and analogues), PKC activation, read-out: EC50 using SRE, zfTac3rb) | EC50, CRE-Luc to follow PKA activation, transfected COS-7 cells [5] | EC50, CRE-Luc to follow PKA activation, transfected COS-7 cells [6] | EC50, CRE-Luc to follow PKA activation, transfected COS-7 cells [7] | EC50, SRE reporter gene that follows PKC activation, transfected COS-7 cells [8] | EC50, SRE reporter gene that follows PKC activation, transfected COS-7 cells [9] | EC50, SRE reporter gene that follows PKC activation, transfected COS-7 cells [10] | EC50, CRE-Luc reporter (PKA activation), transfected COS-7 cells [11] | EC50, SRE-Luc reporter (PKC activation), transfected COS-7 cells [11] | EC50, CRE-Luc reporter (PKA activation), transfected COS-7 cells [12] | EC50, SRE-Luc reporter (PKC activation), transfected COS-7 cells [12] | EC50, CRE-Luc reporter (PKA activation), transfected COS-7 cells [13] | EC50, SRE-Luc reporter (PKC activation), transfected COS-7 cells [13] | Molecule
 |  |  |  |  |  |  |  | 6.64 nM | 4.75 nM | 16.4 nM | 0.49 nM | 0.62 nM | 26.1 nM | 3.73 nM | 0.49 nM | 5.75 nM | 0.5 nM | 4.55 nM | 1.47 nM | EMHDIFVGLM-NH2 [Zebrafish Tac3a peptide, neurokinin Ba (EMHDIFVGLM-NH2)]
 |  |  |  |  |  |  |  | 2.19 nM | 1.68 nM | 2.18 nM | 0.94 nM | 0.06 nM | 0.23 nM |  |  |  |  |  |  | Suc-DF[NMeV]GLM-NH2 [NKBb-analog (Succ-Asp-Phe-N(Me)Val-Gly-Leu-Met-NH2)]
